Legend:
[1] = biological target: FMRP RNA-AE (KH1 GKKG / KH2 RNA-KO, KH1-2 di-domain) (human (hFMRP), UniProt Q06787 216-425, T236K;H237K;K299D;N300D;del331-396); assay: NMR titration; Kd value only in figure; NMR titrations: 50 uM 15N-protein, 10 mM phosphate pH 6.9, 40 mM NaCl, 0.5 mM TCEP, protein:RNA 1:0 to 1:12; temperature not given; settings: protein: recombinant; tags: N-terminal 6xHis, cleaved with HRV 3C; single strand
[2] = biological target: FMRP RNA-WT (KH1 WT / KH2 RNA-KO, KH1-2 di-domain) (human (hFMRP), UniProt Q06787 216-425, K299D;N300D;del331-396); assay: NMR titration; unit prefix lost in text (printed M), uM inferred; NMR titrations: 50 uM 15N-protein, 10 mM phosphate pH 6.9, 40 mM NaCl, 0.5 mM TCEP, protein:RNA 1:0 to 1:12; temperature not given; settings: protein: recombinant; tags: N-terminal 6xHis, cleaved with HRV 3C; single strand

Binder	binding signal [1]	Kd [2] [µM]
GAGCC (ssRNA)	~3 fold weaker than GAGAC	
GAGAC (ssRNA)	~3 fold tighter than GAGCC	
UAGAC (ssRNA)	2.5 fold weaker than UGGAC	
UGGAC (ssRNA)		418 ± 57.9
